The values below come from patent publication US20050244400A1.

In assay [1] the target is GAA Δ 817-952 (human GAA lacking C-terminal residues 817-952) (human) (UniProt P10253). Description: cell-based or functional assay.
In assay [2] the target is GAAΔ791-952-GILTΔ1-7 (GAA truncated with the GILT tag fused at position 791) (human) (UniProt P10253). Description: cell-based or functional assay.

With “SS-GAA-791-952 (human IGF-II signal sequence fused to human GAA residues 791-952, the C-terminal domain) (from UniProt P10253 791-952) (enzyme)”, the figures for the GAA activity (nmol/hr-ml) in media of co-transfected HEK293 cells in assay [1] and in assay [2] were 14 nmol/h/mL and 2 nmol/h/mL, respectively. As for “SS-GAA-817-952 (from UniProt P10253 817-952) (enzyme)”, the GAA activity (nmol/hr-ml) in media of co-transfected HEK293 cells in assay [2] turned out to be 1 nmol/h/mL.
